Source: US7108990B2, “Chemokine receptor” (ChemoCentryx, Inc., priority 1999, dated 2006)
“Also recorded” adds a separate entry of the source. Like-named read-outs stand apart in the source and are kept apart here.

Legend:
CCX CKR [1] = target: T1, CCX CKR (Homo sapiens, UniProt Q9NPB9); experiment: Small molecule screen: inhibition of 125I-ELC binding to HEK293 cells stably expressing CCX CKR; conditions: for effect on binding between ELC and CCX CKR: 125I-ELC ~25–100 pM, compounds 1–5 μg/mL, HEK293-CCX CKR cells, 3 hours at 4° C.; for type of modulator of CCX CKR function: Table 1, exemplary small molecule modulators of CCX CKR binding to ELC
T1 construct: Full length CCX CKR expression constructs were made in pIRESpuro expression vector; expressed in transfected cells
T1 sequence (Q9NPB9 1-350): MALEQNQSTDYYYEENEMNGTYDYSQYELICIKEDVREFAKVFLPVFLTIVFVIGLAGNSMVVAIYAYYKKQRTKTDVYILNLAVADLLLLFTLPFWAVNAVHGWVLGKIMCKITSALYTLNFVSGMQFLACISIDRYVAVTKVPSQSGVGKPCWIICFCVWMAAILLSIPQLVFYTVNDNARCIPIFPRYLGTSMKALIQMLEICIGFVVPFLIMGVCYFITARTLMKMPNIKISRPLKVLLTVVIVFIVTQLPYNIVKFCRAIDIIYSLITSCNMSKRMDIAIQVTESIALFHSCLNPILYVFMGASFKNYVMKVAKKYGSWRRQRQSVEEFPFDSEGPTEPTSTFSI
Protocol: Source plates of chemical libraries were obtained from commercial vendors and contained individual compounds at 5 mg/mL in DMSO, or in some instances, at 1 mg/mL. From these, multiple compound plates containing 10 compounds in each well were made, and these were diluted in 20% DMSO to a concentration of 50 μg/mL (10 μg/mL for those beginning at 1 mg/mL). An aliquot of 20 μL of each mixture was put into the test plates, which were stored frozen until use.
HEK293 cells stably expressing the M1 flag epitope-tagged CCX CKR (described in Example 3, supra) were cultured in DMEM-10% FBS, and harvested when the concentration was between 0.5–1.0×10^6 cells/mL. The cells were centrifuged and resuspended in assay buffer (20 mM HEPES, 80 mM NaCl, 1 mM CaCl2, 5 mM MgCl2, and with 0.2% bovine serum albumin, pH 7.4) to a concentration of 5.6×10^6 cells/mL.
Using a Multi-Probe automated system, 0.09 mL of cells was added to each well of the assay test plates containing the compounds, followed by 0.09 mL of ^125I-MIPβ3/ELC (from Amersham Pharmacia Biotech) diluted in assay buffer (final concentration ˜25–100 pM, with ˜50,000 cpm per well). The final concentration of the compounds was 1–5 μg/mL each. The plates were sealed and incubated for approximately 3 hours at 4° C. on a shaker platform. The assay plates were harvested using Packard GP/B filter plates, pre-soaked in PEI solution, on the vacuum harvest apparatus. Scintillation fluid (50 μL) was added to each of the wells, the plates were sealed and counted in a Top Count scintillation counter. Control wells contained either diluent only (for total counts) or excess ELC (1 μg/mL, for non-specific binding) and were used to calculate the percent of total inhibition of ELC binding for each set of compounds.

CCX CKR [2] = target: T1, CCX CKR; experiment: Radioligand binding competition (DisplaceMax) to CCX CKR stable transfectants with Scatchard transformation
Text: In one embodiment, binding is detected as described by Dairaghi et al., 1997, J. Biol. Chem. 272:28206–209 (incorporated by reference in its entirety for all purposes) substituting CCX CKR transfectants for the CCR3 transfectants). In one embodiment, binding is detected using the filter based technique described by Dairaghi et al., 1999, J. Biol. Chem. 274:2156 (incorporated by reference in its entirety for all purposes), e.g., as shown in FIG. 4. Briefly, this technology employs expanded, efficiency-maximized radioligand binding utilizing filtration protocols. In these assays, 1×10^5 CCXCKR-293 HEK cells are incubated with ^125I-labeled ELC (MIP3beta) (final concentration of ˜0.05 nM) in the presence of unlabeled chemokine for 3 h at 4° C. in 25 mM HEPES, 140 mM NaCl, 1 mM CaCl2, 5 mM MgCl2, and 0.2% bovine serum albumin, adjusted to pH 7.1. Reactions were aspirated onto PEI-treated GF/B glass filters using a cell harvester (Packard). Filters are washed twice (25 mM HEPES, 500 mM NaCl, 1 mM CaCl2 5 mM MgCl2, adjusted to pH 7.1) and scintillant (e.g., MicroScint 20; 50 μl) is added to dried filters and counted (e.g., using a Packard Topcount scintillation counter). The competition dose-response curves is analyzed by standard methods to determine IC50 values (e.g., using GraphPad Prism software (San Diego, Calif.)). Additionally, a Scatchard transformation can be used to estimate the receptor sites per cell (e.g., using WaveMetrics Igor software (Lake Oswego, Oreg.)).
(§1) Binding analysis was carried out using efficiency-maximized radioligand binding utilizing filtration protocols designated “Displace Max” (Dairaghi et al., 1999, J. Biol. Chem. 274:21569). In these assays, DisplaceMax employed the simultaneous interrogation of CCX CKR transfectants by >80 distinct purified chemokines in the ability to displace radiolabeled ELC or TECK, using the protocol described (Dairaghi et al., 1999, J. Biol. Chem. 274:21569).
The binding interactions identified in the primary screen were examined quantitatively by extensive radioligand binding competition to CCX CKR stable transfectants and Scatchard transformation of the displacement data (FIG. 4B). […] In each case, the murine versions of these chemokines also bound, and with even greater affinity; the apparent Kd's are listed in FIG. 4B. […] In similar experiments, murine CTACK bound the receptor with a Kd of ˜9 nM (not shown). CTACK is also referred to as CCL27, ALP, ILC, and ESkine.

CCX CKR [3] = target: T1, CCX CKR; experiment: Ligand binding fingerprint: cold chemokines competing against 125I-ELC on CCX CKR stable transfectants; conditions: cold competitor at 200 nM; human and murine chemokines
Text: In order to rapidly and thoroughly define a given chemokine receptor's ligand binding fingerprint, we have established an approach to comprehensively profile chemokine receptors using a large array of purified chemokines and chemokine variants. We used this approach to confirm independently the interaction of ELC and other chemokines with CCX CKR. Employing radioligand binding of ^125-labeled-ELC or ^125-TECK to CCX CKR stable transfectants, chemokine specificity for the new receptor was determined.
as §1

CCX CKR [4] = target: T1, CCX CKR; experiment: Adhesion of HEK293-CCX CKR cells to immobilized stalkokines and competition by soluble chemokines; assay type: cell-based; conditions: soluble recombinant chemokine 5–10 ug/ml
Text: “Stalkokine” technology was used to identify the chemokines bound by the CCX CKR. Briefly, immobilized native chemokines alone are incapable of capturing cells bearing cognate receptors (Imai et al., 1997, Cell 91:521). We have developed non-native chemokine structures, stalkokines, comprising chemokine moieties engineered as N-terminal attachments to extended modified mucins (Bazan et al., 1997, Nature 385:640). In one embodiment, stalkokines, harvested in the supernatants of HEK293 cells after transient transfection, are anchored to solid substrates via antibodies against carrier domains (e.g. poly-His epitopes) engineered to the carboxyl terminus, leaving the chemokine domain free to interact with candidate orphan receptors.
To determine ligand binding to CCX CKR, HEK293-CCX CKR cells were used to interrogate chemokine ‘stalkokines’ (SK), i.e., molecules in which discrete chemokine domains were engineered to be tethered to the end of an extended stalk structure. Stalkokines were interrogated using 8-well chamber slides coated first with anti-His anchoring antibody (10 ug/ml in PBS overnight at RT), which were washed and ‘blocked’ (2% FBS/0.5% BSA in PBS); treated with 250 ul of HEK293 cell stalkokine supernatants (1 hr at 37 C), and incubated with 500,000 HEK293-CCX CKR transfectants (1.5 hrs at RT). Inhibition of adhesion by competition with soluble chemokines was done by incubating cells with 5–10 ug/ml of recombinant chemokines. In all cases, nonadherent cells were removed by washing in PBS; remaining adherent cells were fixed with 1% glutaraldehyde, photoimaged and counted. As a primary screen this adhesion would reveal putative receptor-ligand interactions.

CCX CKR [5] = target: T1, CCX CKR; experiment: Ligand induced internalization of Flag-CCX CKR in 293 cells (FACS); assay type: cell-based; conditions: 100 nM chemokine, 37° C., 15 or 45 minutes, 293 F-CCR10 cells
Protocol: 293 cells transfected with the Flag-CCX CKR fusion plasmid (i.e., “293 F-CCR10 cells;” see Example 3) were incubated at 37° C. with varying concentrations of chemokines (ELC, SLC, TECK, murine CTACK and MCP-4) for 15 or 45 minutes. Following incubation, the cells were washed and fixed with 3% paraformaldehyde for 15 minutes on ice. The cells were stained with anti-Flag M1 antibody, followed by a PE-conjugated anti-mouse secondary antibody. FACS analysis were then carried out to determine surface expression of the receptor.
Results: A reduction in antibody binding in the presence of ligand is an indication of ligand-induced internalization of the receptor.

CCX CKR [6] = target: T1, CCX CKR; experiment: Homologous competition binding assay with radiolabeled chemokine on HEK293-CCX CKR cells; conditions: HEK293-CCX CKR cells versus wildtype HEK293 cells
Text: Furthermore ELC-SK mediated adhesion was abolished in the presence of soluble native ELC as a competitor (FIG. 3A, top row). […] Moreover, radiolabeled ELC was used in a traditional homologous competition assay in the presence of increasing concentrations of unlabeled ELC. […] Taken together, the stalkokine-based adhesion and radiolabeled ligand binding/homologous competition assays indicate that CCX CKR is a new chemokine receptor that bound a novel compliment of chemokines.

Molecule	effect on binding between ELC and CCX CKR (CCX CKR [1])	type of modulator of CCX CKR function (CCX CKR [1])	affinity of binding to CCX CKR, in words (CCX CKR [2])	competition with 125I-labeled ELC binding to CCX CKR (fingerprint) (CCX CKR [3])	internalization of CCX CKR (CCX CKR [5])	other results
CC1CCCCN1CCCN(Cc1ccc(OCc2ccccc2)cc1)C(=O)Nc1ccc(Cl)c(Cl)c1 (stereo not shown) [Compound I]	inhibit binding	Compound I(antagonist)	–	–	–	–
CCC(c1nc2ccccc2c(=O)n1C)N(Cc1ccco1)C(=O)Nc1cccc(C(F)(F)F)c1 (stereo not shown) [Compound III]	enhance binding	Compound III(agonist)	–	–	–	–
BLC: the CXC chemokine BLC	–	–	lower affinity; also recorded: of lesser affinity, also bound well	potential lower affinity	–	–
MCP-3: chemokine, representative of many non-competing chemokines	–	–	–	–	–	effect of soluble chemokine on ELC-SK mediated adhesion of HEK293-CCX CKR cells (CCX CKR [4]): no diminution in adhesion
CC1CCCCN1CCCN(Cc1ccc(OCc2ccccc2)cc1)C(=O)NCC1CCC2CCCC(C2)C1 (stereo not shown) [Compound II]	inhibit binding	Compound II(antagonist)	–	–	–	–
MCP-4: chemokine, did not cause receptor internalization	–	–	–	–	did not cause internalization	–
vMIP-II: virally-encoded chemokine from the human Kaposi's sarcoma herpesvirus HHV8 (protein) LGASWHRPDKCCLGYQKRPLPQVLLSSWYPTSQLCSKPGVIFLTKRGRQVCADKSKDWVKKLMQQLPVTAR	–	–	moderate to low affinity	potential lower affinity	–	affinity of binding to CCX CKR, in words (CCX CKR [2]; listed as vMIPII): lower affinity
mMIP-1gamma: murine chemokine MIP-1γ (protein) QITHATETKEVQSSLKAQQGLEIEMFHMGFQDSSDCCLSYNSRIQCSRFIGYFPTSGGCTRPGIIFISKRGFQVCANPSDRRVQRCIERLEQNSQPRTYKQ	–	–	lower affinity	moderately	–	–
murine CTACK: murine chemokine CTACK, also referred to as CCL27, ALP, ILC, and ESkine (protein) LPLPSSTSCCTQLYRQPLPSRLLRRIVHMELQEADGDCHLQAVVLHLARRSVCVHPQNRSLARWLERQGKRLQGTVPSLNLVLQKKMYSHPQQQN	–	–	high affinity	–	Internalization of the receptor was observed	–
TECK: thymus expressed chemokine, recombinant (protein) QGVFEDCCLAYHYPIGWAVLRRAWTYRIQEVSGSCNLPAAIFYLPKRHRKVCGNPKSREVQRAMKLLDARNKVFAKLHHNTQTFQAGPHAVKKLSSGNSKLSSSKFSNPISSSKRNVSLLISANSGL	–	–	high affinity	bound well	Internalization of the receptor was observed	effect of soluble chemokine on ELC-SK mediated adhesion of HEK293-CCX CKR cells (CCX CKR [4]): significant reduction; also recorded: ablation of adhesion; binding in homologous competition of radiolabeled with unlabeled chemokine (CCX CKR [6]): Nearly identical results
